Assay results taken from patent US20060257938A1, “Method of screening for drugs that block ligand binding to a lipid binding protein” (priority 2005, published 2006).
Substitutions are numbered along the chain they refer to.

B1: 72H 73P 74L (protein, listed as Rattus norvegicus)
chain: AFDGTWKVDRNENYEKFMEKMGINVVKRKLGAHDNLKLTITQEGNKFTVKESSNFRNIDVVFELGVDFAYSHPLGTELTGTWTMEGNKLVGKFKRVDNGKELIAVREISGNELIQTYTYEGVEAKRIFKKE
modifications: PEPTIDE (1)...(131) wild-type rat intestinal fatty acid binding protein
B2: 38Y 62W 117A 72A (protein, listed as Rattus norvegicus)
chain: B1 chain with L38Y, F62W, H72A, P73A, L74D, Y117A
modifications: PEPTIDE (1)...(131) wild-type rat intestinal fatty acid binding protein
B3: 72S 73P 74I (protein, listed as Rattus norvegicus)
chain: B1 chain with H72S, L74I
modifications: PEPTIDE (1)...(131) wild-type rat intestinal fatty acid binding protein
B4: 38Y 18L 73V 72A (protein, listed as Rattus norvegicus)
chain: B1 chain with M18L, L38Y, H72A, P73V, L74D
modifications: PEPTIDE (1)...(131) wild-type rat intestinal fatty acid binding protein
B5: 18I 31F 72A (protein, listed as Rattus norvegicus)
chain: B1 chain with M18I, G31F, H72A, P73A, L74D
modifications: PEPTIDE (1)...(131) wild-type rat intestinal fatty acid binding protein
B6: 21W 72A (protein, listed as Rattus norvegicus)
chain: B1 chain with M21W, H72A, P73A, L74D
modifications: PEPTIDE (1)...(131) wild-type rat intestinal fatty acid binding protein

Assay: Probe fluorescence ratio response to linolenic acid relative to ADIFAB2
Type: binding
Details: response relative to ADIFAB2
Summary of the method: (§1)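 Each fatty acid's response was expressed relative to ADIFAB2, the rI-FABP-L72A probe, as ΔR/ΔRreference. ΔR is the change in the background-corrected two-wavelength intensity ratio R=Fλ1/Fλ2 from its analyte-free baseline R0. Emission was read near about 420-480 nm for unbound and about 495-580 nm for FFA-bound probe.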

**Q.** For B1, which “DR/DR LNA” value is on record?
**A.** The value was 6.352.

**Q.** For B2, which “DR/DR LNA” value is on record?
**A.** Its value is 1.237.

**Q.** Which “DR/DR LNA” value does the source give for B3 here?
**A.** Its value is 3.091.

**Q.** Which “DR/DR LNA” value does the source give for B4 here?
**A.** The value was 0.133.

**Q.** Which “DR/DR LNA” value does the source give for B5 here?
**A.** The value was 3.027.

**Q.** With B6 as the molecule, how does the “DR/DR LNA” value read?
**A.** The value was 2.550.

Assay: Probe fluorescence ratio response to stearic acid relative to ADIFAB2
Type: binding
Details: response relative to ADIFAB2
Summary of the method: as §1

**Q.** Which “DR/DR SA” value does the source give for B1 here?
**A.** The value was 1.474.

**Q.** Which “DR/DR SA” value does the source give for B2 here?
**A.** The value was 0.854.

**Q.** For B3, which “DR/DR SA” value is on record?
**A.** The value was 1.337.

**Q.** Which “DR/DR SA” value does the source give for B4 here?
**A.** Its value is 0.824.

**Q.** Which “DR/DR SA” value does the source give for B5 here?
**A.** The value was 0.950.

**Q.** With B6 as the molecule, how does the “DR/DR SA” value read?
**A.** The value was 1.946.

Assay: Probe fluorescence ratio response to palmitic acid relative to ADIFAB2
Type: binding
Details: response relative to ADIFAB2
Summary of the method: as §1

**Q.** With B1 as the molecule, how does the “DR/DR PA” value read?
**A.** The value was 5.260.

**Q.** Which “DR/DR PA” value does the source give for B2 here?
**A.** The value was 0.316.

**Q.** For B3, which “DR/DR PA” value is on record?
**A.** The value was 2.210.

**Q.** For B4, which “DR/DR PA” value is on record?
**A.** Its value is 0.067.

**Q.** With B5 as the molecule, how does the “DR/DR PA” value read?
**A.** The value was 2.037.

**Q.** With B6 as the molecule, how does the “DR/DR PA” value read?
**A.** The value was 1.637.

Assay: Probe fluorescence ratio response to linoleic acid relative to ADIFAB2
Type: binding
Details: response relative to ADIFAB2
Summary of the method: as §1

**Q.** For B1, which “DR/DR LA” value is on record?
**A.** Its value is 5.429.

**Q.** For B2, which “DR/DR LA” value is on record?
**A.** The value was 1.848.

**Q.** For B3, which “DR/DR LA” value is on record?
**A.** The value was 2.792.

**Q.** Which “DR/DR LA” value does the source give for B4 here?
**A.** Its value is 0.034.

**Q.** For B5, which “DR/DR LA” value is on record?
**A.** The value was 2.707.

**Q.** With B6 as the molecule, how does the “DR/DR LA” value read?
**A.** The value was 2.551.

Assay: Probe fluorescence ratio response to palmitoleic acid relative to ADIFAB2
Type: binding
Details: response relative to ADIFAB2
Summary of the method: as §1

**Q.** With B1 as the molecule, how does the “DR/DR POA” value read?
**A.** The value was 7.165.

**Q.** With B2 as the molecule, how does the “DR/DR POA” value read?
**A.** Its value is 0.272.

**Q.** With B3 as the molecule, how does the “DR/DR POA” value read?
**A.** The value was 3.155.

**Q.** For B4, which “DR/DR POA” value is on record?
**A.** The value was 0.023.

**Q.** For B5, which “DR/DR POA” value is on record?
**A.** Its value is 2.659.

**Q.** For B6, which “DR/DR POA” value is on record?
**A.** Its value is 2.120.

Assay: Response profile of probe to fatty acids (Table 2)
Type: binding
Details: not given

**Q.** For B1, which “response profile” value is on record?
**A.** Its value is “Large Response, Favors”.

**Q.** For B2, which “response profile” value is on record?
**A.** The value was “Favors AA”.

**Q.** Which “response profile” value does the source give for B3 here?
**A.** Its value is “Favors POA and LNA”.

**Q.** For B4, which “response profile” value is on record?
**A.** Its value is “AA and SA”.

**Q.** Which “response profile” value does the source give for B5 here?
**A.** Its value is “Favors LNA”.

**Q.** For B6, which “response profile” value is on record?
**A.** Its value is “Large Response, Favors AA”.

Assay: Probe fluorescence ratio response to arachidonic acid relative to ADIFAB2
Type: binding
Details: arachidonic acid; response relative to ADIFAB2
Summary of the method: as §1

**Q.** With B1 as the molecule, how does the “DR/DR AA” value read?
**A.** Its value is 4.597.

**Q.** Which “DR/DR AA” value does the source give for B2 here?
**A.** The value was 2.353.

**Q.** With B3 as the molecule, how does the “DR/DR AA” value read?
**A.** The value was 2.154.

**Q.** Which “DR/DR AA” value does the source give for B4 here?
**A.** The value was 1.172.

**Q.** For B5, which “DR/DR AA” value is on record?
**A.** The value was 2.043.

**Q.** With B6 as the molecule, how does the “DR/DR AA” value read?
**A.** Its value is 3.829.

Assay: Probe fluorescence ratio response to oleic acid relative to ADIFAB2
Type: binding
Details: response relative to ADIFAB2
Summary of the method: as §1

**Q.** Which “DR/DR OA” value does the source give for B1 here?
**A.** Its value is 3.919.

**Q.** For B2, which “DR/DR OA” value is on record?
**A.** Its value is 1.896.

**Q.** For B3, which “DR/DR OA” value is on record?
**A.** The value was 2.162.

**Q.** With B4 as the molecule, how does the “DR/DR OA” value read?
**A.** Its value is 0.235.

**Q.** With B5 as the molecule, how does the “DR/DR OA” value read?
**A.** The value was 1.761.

**Q.** Which “DR/DR OA” value does the source give for B6 here?
**A.** The value was 2.808.
